Changes are numbered by the printed parent chain. Names and notes keep the numbering of the source.
B1: CE115HA000 S52cL one-arm antibody (antibody, human IgG1, kappa, L234A L235A, N297A, name in Kabat numbering)
heavy: QVQLVESGGGVVQPGRSLRLSCAASGFTFSNAWMHWVRQAPGKGLEWVAQIKAKLNNYATYYAESVKGRFTISRDDSKNSLYLQMNSLKTEDTAVYYCRYVHYGAYYGVDAWGQGTTVTVSSASTKGPSVFPLAPSSKSTSGGTAALGCLVKDYFPEPVTVSWNSGALTSGVHTFPAVLQSSGLYSLSSVVTVPSSSLGTQTYICNVNHKPSNTKVDKKVEPKSCDKTHTCPPCPAPEAAGGPSVFLFPPKPKDTLMISRTPEVTCVVVDVSHEDPEVKFNWYVDGVEVHNAKTKPREEQYASTYRVVSVLTVLHQDWLNGKEYKCKVSNKALPAPIEKTISKAKGQPREPQVYTLPPSRCELTKNQVSLSCAVKGFYPSDIAVEWESNGQPENNYKTTPPVLDSDGSFFLVSKLTVDKSRWQQGNVFSCSVMHEALHNHYTQKSLSLSPDYKDDDDK
chain: EPKSSDKTHTCPPCPAPELLGGPSVFLFPPKPKDTLMISRTPEVTCVVVDVSHEDPEVKFNWYVDGVEVHNAKTKPREEQYNSTYRVVSVLTVLHQDWLNGKEYKCKVSNKALPAPIEKTISKAKGQPREPQVCTLPPSRDELTKNQVSLWCLVKGFYPSDIAVEWESNGQPENNYKTTPPVLDSDGSFFLYSKLTVDKSRWQQGNVFSCSVMHEALHNRYTQKSLSLSP
light: DIVMTQSPLSLPVTPGEPASISCRSSQSLVHSNRNTYLHWYQQKPGQAPRLLIYKVSNRFSGVPDRFSGSGSGTDFTLKISRVEAEDVGVYYCGQGTQVPYTFGQGTKLEIKRTVAAPSVFIFPPSDEQLKSGTASVVCLLNNFYPREAKVQWKVDNALQSGNSQESVTEQDSKDSTYSLSSTLTLSKADYEKHKVYACEVTHQGLSSPVTKSFNRGEC
B2: CE115HA000 V95A one-arm antibody (antibody, human IgG1, kappa, L234A L235A, N297A, name in Kabat numbering)
heavy: B1 heavy with L55S, V101A
chain: B1 chain
light: B1 light
B3: CE115HA000 S77T one-arm antibody (antibody, human IgG1, kappa, L234A L235A, N297A, name in Kabat numbering)
heavy: B1 heavy with L55S, S80T
chain: B1 chain
light: B1 light
B4: CE115HA000 S52cV one-arm antibody (antibody, human IgG1, kappa, L234A L235A, N297A, name in Kabat numbering)
heavy: B1 heavy with L55V
chain: B1 chain
light: B1 light
B5: CE115HA000 S62P one-arm antibody (antibody, human IgG1, kappa, L234A L235A, N297A, name in Kabat numbering)
heavy: B1 heavy with L55S, S65P
chain: B1 chain
light: B1 light
B6: CE115HA000 W33F one-arm antibody (antibody, human IgG1, kappa, L234A L235A, N297A, name in Kabat numbering)
heavy: B1 heavy with W33F, L55S
chain: B1 chain
light: B1 light
B7: CE115HA000 T57K one-arm antibody (antibody, human IgG1, kappa, L234A L235A, N297A, name in Kabat numbering)
heavy: B1 heavy with L55S, T60K
chain: B1 chain
light: B1 light
B8: CE115HA000 T28S one-arm antibody (antibody, human IgG1, kappa, L234A L235A, N297A, name in Kabat numbering)
heavy: B1 heavy with T28S, L55S
chain: B1 chain
light: B1 light
B9: CE115HA000 T57I one-arm antibody (antibody, human IgG1, kappa, L234A L235A, N297A, name in Kabat numbering)
heavy: B1 heavy with L55S, T60I
chain: B1 chain
light: B1 light
B10: CE115HA000 T57N one-arm antibody (antibody, human IgG1, kappa, L234A L235A, N297A, name in Kabat numbering)
heavy: B1 heavy with L55S, T60N
chain: B1 chain
light: B1 light
B11: CE115HA000 S52cQ one-arm antibody (antibody, human IgG1, kappa, L234A L235A, N297A, name in Kabat numbering)
heavy: B1 heavy with L55Q
chain: B1 chain
light: B1 light
B12: CE115HA000 S74P one-arm antibody (antibody, human IgG1, kappa, L234A L235A, N297A, name in Kabat numbering)
heavy: B1 heavy with L55S, S77P
chain: B1 chain
light: B1 light
B13: CE115HA000 V100cD one-arm antibody (antibody, human IgG1, kappa, L234A L235A, N297A, name in Kabat numbering)
heavy: B1 heavy with L55S, V109D
chain: B1 chain
light: B1 light
B14: CE115HA000 W33H one-arm antibody (antibody, human IgG1, kappa, L234A L235A, N297A, name in Kabat numbering)
heavy: B1 heavy with W33H, L55S
chain: B1 chain
light: B1 light
B15: CE115HA000 V95K one-arm antibody (antibody, human IgG1, kappa, L234A L235A, N297A, name in Kabat numbering)
heavy: B1 heavy with L55S, V101K
chain: B1 chain
light: B1 light
B16: CE115HA000 W33A one-arm antibody (antibody, human IgG1, kappa, L234A L235A, N297A, name in Kabat numbering)
heavy: B1 heavy with W33A, L55S
chain: B1 chain
light: B1 light
B17: CE115HA000 V100cE one-arm antibody (antibody, human IgG1, kappa, L234A L235A, N297A, name in Kabat numbering)
heavy: B1 heavy with L55S, V109E
chain: B1 chain
light: B1 light
B18: CE115HA000 V11L one-arm antibody (antibody, human IgG1, kappa, L234A L235A, N297A, name in Kabat numbering)
heavy: B1 heavy with V11L, L55S
chain: B1 chain
light: B1 light
B19: CE115HA000 S52cY one-arm antibody (antibody, human IgG1, kappa, L234A L235A, N297A, name in Kabat numbering)
heavy: B1 heavy with L55Y
chain: B1 chain
light: B1 light
B20: CE115HA000 S74A one-arm antibody (antibody, human IgG1, kappa, L234A L235A, N297A, name in Kabat numbering)
heavy: B1 heavy with L55S, S77A
chain: B1 chain
light: B1 light
B21: CE115HA000 T57A one-arm antibody (antibody, human IgG1, kappa, L234A L235A, N297A, name in Kabat numbering)
heavy: B1 heavy with L55S, T60A
chain: B1 chain
light: B1 light
B22: CE115HA000 V95G one-arm antibody (antibody, human IgG1, kappa, L234A L235A, N297A, name in Kabat numbering)
heavy: B1 heavy with L55S, V101G
chain: B1 chain
light: B1 light
B23: CE115HA000 V95S one-arm antibody (antibody, human IgG1, kappa, L234A L235A, N297A, name in Kabat numbering)
heavy: B1 heavy with L55S, V101S
chain: B1 chain
light: B1 light
B24: CE115HA000 V95D one-arm antibody (antibody, human IgG1, kappa, L234A L235A, N297A, name in Kabat numbering)
heavy: B1 heavy with L55S, V101D
chain: B1 chain
light: B1 light
B25: CE115HA000 V100cP one-arm antibody (antibody, human IgG1, kappa, L234A L235A, N297A, name in Kabat numbering)
heavy: B1 heavy with L55S, V109P
chain: B1 chain
light: B1 light
B26: CE115HA000 S62D one-arm antibody (antibody, human IgG1, kappa, L234A L235A, N297A, name in Kabat numbering)
heavy: B1 heavy with L55S, S65D
chain: B1 chain
light: B1 light
B27: CE115HA000 W33L one-arm antibody (antibody, human IgG1, kappa, L234A L235A, N297A, name in Kabat numbering)
heavy: B1 heavy with W33L, L55S
chain: B1 chain
light: B1 light
B28: CE115HA000 V95E one-arm antibody (antibody, human IgG1, kappa, L234A L235A, N297A, name in Kabat numbering)
heavy: B1 heavy with L55S, V101E
chain: B1 chain
light: B1 light
B29: CE115HA000 T28D one-arm antibody (antibody, human IgG1, kappa, L234A L235A, N297A, name in Kabat numbering)
heavy: B1 heavy with T28D, L55S
chain: B1 chain
light: B1 light
B30: CE115HA000 S62K one-arm antibody (antibody, human IgG1, kappa, L234A L235A, N297A, name in Kabat numbering)
heavy: B1 heavy with L55S, S65K
chain: B1 chain
light: B1 light
B31: CE115HA000 W33Y one-arm antibody (antibody, human IgG1, kappa, L234A L235A, N297A, name in Kabat numbering)
heavy: B1 heavy with W33Y, L55S
chain: B1 chain
light: B1 light
B32: CE115HA000 S62E one-arm antibody (antibody, human IgG1, kappa, L234A L235A, N297A, name in Kabat numbering)
heavy: B1 heavy with L55S, S65E
chain: B1 chain
light: B1 light
B33: CE115HA000 W33D one-arm antibody (antibody, human IgG1, kappa, L234A L235A, N297A, name in Kabat numbering)
heavy: B1 heavy with W33D, L55S
chain: B1 chain
light: B1 light

biological target: T1, CD3 epsilon homodimer protein (UniProt P07766 23-126); test: SPR (Biacore T200), CD3 epsilon homodimer on CM4 chip, one-arm antibody as analyte, 25 C;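 note: homodimer attached to the sensor surface via amine coupling, HBS-EP+ used as running buffer during binding runs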
T1 construct: immobilized on Sensor chip CM4 by amine coupling; also called CD3 (CD3 epsilon)
T1 sequence (P07766 23-126): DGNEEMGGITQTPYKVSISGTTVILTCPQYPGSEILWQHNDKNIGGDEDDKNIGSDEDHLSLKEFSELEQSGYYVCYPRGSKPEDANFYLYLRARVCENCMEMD

| Binder | ratio of amounts bound (altered form / CE115HA000) |
| --- | --- |
| B1 | 0.98 |
| B2 | 0.11 |
| B3 | 0.9 |
| B4 | 0.93 |
| B5 | 1 |
| B6 | 0.65 |
| B7 | 1.32 |
| B8 | 0.91 |
| B9 | 0.61 |
| B10 | 0.97 |
| B11 | 1.04 |
| B12 | 0.91 |
| B13 | 0.44 |
| B14 | 0.13 |
| B15 | 0.64 |
| B16 | 0.1 |
| B17 | 0.46 |

| Binder | ratio of amounts bound (altered form / CE115HA000) |
| --- | --- |
| B18 | 1 |
| B19 | 1.11 |
| B20 | 1.05 |
| B21 | 0.98 |
| B22 | 0.19 |
| B23 | 0.22 |
| B24 | 0.24 |
| B25 | 0.2 |
| B26 | 0.92 |
| B27 | 0.1 |
| B28 | 0.24 |
| B29 | 0.56 |
| B30 | 1.19 |
| B31 | 0.66 |
| B32 | 0.92 |
| B33 | 0.1 |

— US20210388087A1 (Chugai, published 2021)
